Assay results reported in publication PMC2807882, “Conservation of DNA-binding specificity and oligomerisation properties within the p53 family”.

Assays:
Test in all cases: fluorescence anisotropy competition titration; 25 mM sodium phosphate (purification buffer pH 7.2), 225 mM NaCl, 10% v/v glycerol, 5 mM DTT, 0.2 mg/mL BSA, 22 C
Settings in all cases: protein: recombinant; tags: N-terminal 6xHis-lipoyl-TEV tag, cleaved; chain copies: 4
Mmp53 = Mmp53 (Mus musculus, UniProt P02340 1-390)
ΔNp63γ = molecular target: T1, ΔNp63γ (Homo sapiens, UniProt Q9H3D4-6 1-393)
T1 sequence: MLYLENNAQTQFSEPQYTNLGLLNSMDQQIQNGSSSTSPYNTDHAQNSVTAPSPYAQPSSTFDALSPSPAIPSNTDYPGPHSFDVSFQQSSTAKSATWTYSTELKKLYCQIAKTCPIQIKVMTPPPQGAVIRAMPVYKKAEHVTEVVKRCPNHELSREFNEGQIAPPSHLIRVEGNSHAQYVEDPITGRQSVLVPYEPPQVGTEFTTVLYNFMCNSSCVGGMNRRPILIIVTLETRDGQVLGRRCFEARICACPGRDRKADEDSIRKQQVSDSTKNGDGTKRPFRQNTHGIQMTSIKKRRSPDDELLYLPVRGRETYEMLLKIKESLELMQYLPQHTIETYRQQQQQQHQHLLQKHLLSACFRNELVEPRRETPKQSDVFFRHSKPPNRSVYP

Dmp53 = molecular target: T2, Dmp53 (Drosophila melanogaster, UniProt Q9N6D8 1-385)
T2 sequence: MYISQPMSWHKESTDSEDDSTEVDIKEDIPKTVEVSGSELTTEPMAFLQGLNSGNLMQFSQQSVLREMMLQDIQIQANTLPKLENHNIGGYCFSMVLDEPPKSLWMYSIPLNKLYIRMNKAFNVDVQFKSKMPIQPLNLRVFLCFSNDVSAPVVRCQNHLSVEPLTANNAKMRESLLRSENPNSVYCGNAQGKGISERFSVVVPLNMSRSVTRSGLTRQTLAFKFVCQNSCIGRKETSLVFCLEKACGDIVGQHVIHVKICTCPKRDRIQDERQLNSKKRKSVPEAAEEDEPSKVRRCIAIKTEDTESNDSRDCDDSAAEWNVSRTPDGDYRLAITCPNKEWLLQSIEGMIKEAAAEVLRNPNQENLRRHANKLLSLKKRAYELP

Drp53 = molecular target: T3, Drp53 (Danio rerio, UniProt P79734 1-373)
T3 sequence: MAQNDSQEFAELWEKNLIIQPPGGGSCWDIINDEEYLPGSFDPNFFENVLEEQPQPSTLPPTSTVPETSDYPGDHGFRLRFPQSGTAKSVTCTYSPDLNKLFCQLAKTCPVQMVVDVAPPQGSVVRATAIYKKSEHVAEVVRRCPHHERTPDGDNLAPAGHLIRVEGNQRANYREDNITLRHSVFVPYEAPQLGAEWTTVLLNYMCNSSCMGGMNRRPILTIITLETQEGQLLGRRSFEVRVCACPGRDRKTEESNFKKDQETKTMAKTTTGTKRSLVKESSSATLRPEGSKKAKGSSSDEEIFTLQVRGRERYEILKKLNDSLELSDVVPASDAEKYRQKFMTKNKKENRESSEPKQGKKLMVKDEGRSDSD

ΔNp63β = molecular target: T4, ΔNp63β (Homo sapiens, UniProt Q9H3D4-4 1-461)
T4 sequence: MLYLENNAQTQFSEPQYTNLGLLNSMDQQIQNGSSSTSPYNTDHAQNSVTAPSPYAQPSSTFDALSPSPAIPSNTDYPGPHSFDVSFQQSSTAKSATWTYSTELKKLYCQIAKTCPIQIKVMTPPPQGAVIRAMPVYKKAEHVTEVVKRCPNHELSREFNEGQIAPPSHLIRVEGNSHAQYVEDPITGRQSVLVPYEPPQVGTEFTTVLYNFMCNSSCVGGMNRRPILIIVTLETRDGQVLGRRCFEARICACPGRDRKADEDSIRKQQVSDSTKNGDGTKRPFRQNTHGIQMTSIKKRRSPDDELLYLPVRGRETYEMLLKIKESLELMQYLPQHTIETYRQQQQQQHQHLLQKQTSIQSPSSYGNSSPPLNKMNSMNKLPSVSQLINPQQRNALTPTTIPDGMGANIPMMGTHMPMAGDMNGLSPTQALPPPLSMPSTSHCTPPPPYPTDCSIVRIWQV

p73CT = molecular target: T5, p73CT (Homo sapiens, UniProt O15350 104-383)
T5 sequence: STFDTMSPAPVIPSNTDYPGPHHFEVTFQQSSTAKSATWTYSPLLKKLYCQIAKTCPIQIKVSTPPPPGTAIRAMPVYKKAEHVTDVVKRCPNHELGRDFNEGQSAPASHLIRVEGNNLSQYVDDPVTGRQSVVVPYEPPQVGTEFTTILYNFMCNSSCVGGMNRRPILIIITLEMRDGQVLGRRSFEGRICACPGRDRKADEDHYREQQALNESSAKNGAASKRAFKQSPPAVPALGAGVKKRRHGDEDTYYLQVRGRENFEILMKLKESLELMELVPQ

Xlp53 = Xlp53 (Xenopus laevis, UniProt Q7T1D0 1-362)
Sequence of Xlp53 (Q7T1D0 entry or part of it): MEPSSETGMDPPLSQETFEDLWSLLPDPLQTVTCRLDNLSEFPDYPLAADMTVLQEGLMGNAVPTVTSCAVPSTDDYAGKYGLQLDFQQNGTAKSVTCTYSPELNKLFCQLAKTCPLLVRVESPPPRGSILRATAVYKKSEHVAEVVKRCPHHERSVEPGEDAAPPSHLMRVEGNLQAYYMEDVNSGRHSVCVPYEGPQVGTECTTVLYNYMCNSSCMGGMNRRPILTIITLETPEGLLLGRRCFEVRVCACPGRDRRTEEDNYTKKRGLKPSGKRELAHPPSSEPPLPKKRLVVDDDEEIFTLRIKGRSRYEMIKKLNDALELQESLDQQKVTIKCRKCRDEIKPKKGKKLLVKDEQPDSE

Hsp53 = Hsp53 (Homo sapiens, UniProt P04637 1-393)
Sequence of Hsp53 (P04637 whole entry): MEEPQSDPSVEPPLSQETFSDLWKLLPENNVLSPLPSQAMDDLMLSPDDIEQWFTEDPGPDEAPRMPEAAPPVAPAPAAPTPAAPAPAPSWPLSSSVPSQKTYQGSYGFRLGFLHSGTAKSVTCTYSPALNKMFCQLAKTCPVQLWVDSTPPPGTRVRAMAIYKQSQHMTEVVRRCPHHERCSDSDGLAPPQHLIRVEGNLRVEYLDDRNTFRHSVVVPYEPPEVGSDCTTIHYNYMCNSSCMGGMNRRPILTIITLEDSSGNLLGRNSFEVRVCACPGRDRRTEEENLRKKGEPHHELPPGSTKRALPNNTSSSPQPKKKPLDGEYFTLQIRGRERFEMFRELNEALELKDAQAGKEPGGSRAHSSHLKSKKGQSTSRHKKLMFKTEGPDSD

Sequence of Mmp53 (P02340 whole entry): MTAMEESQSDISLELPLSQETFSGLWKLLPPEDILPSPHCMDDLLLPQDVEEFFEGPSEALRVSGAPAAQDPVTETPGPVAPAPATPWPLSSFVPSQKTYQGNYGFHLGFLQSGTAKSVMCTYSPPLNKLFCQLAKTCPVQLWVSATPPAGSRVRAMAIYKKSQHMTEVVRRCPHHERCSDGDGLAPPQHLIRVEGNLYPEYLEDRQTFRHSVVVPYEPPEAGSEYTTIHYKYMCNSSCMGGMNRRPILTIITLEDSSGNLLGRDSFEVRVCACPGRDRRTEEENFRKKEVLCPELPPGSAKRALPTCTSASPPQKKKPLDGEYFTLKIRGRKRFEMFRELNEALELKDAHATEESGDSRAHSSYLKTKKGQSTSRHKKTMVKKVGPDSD

B1: Ref competitor (dsDNA)
DNA 1: CGCGGACATGTCCGGACATGTCCCGC
DNA 2: GCGGGACATGTCCGGACATGTCCGCG
Kd (Mmp53): 132 nM
Kd (ΔNp63γ): 33.1 nM
Kd (Dmp53): 27.5 nM
Kd (Drp53): 38 nM
Kd (ΔNp63β): 35.5 nM
Kd (p73CT): 148 nM
Kd (Xlp53): 83.2 nM
Kd (Hsp53): 75.9 nM
